# Target: the molecule itself
# Assay: SEC
protein,measurement,value
"Bacillus subtilis xanthine phosphoribosyltransferase (XPRT), hexahistidine tag removed (enzyme, UniProt P42085 1-194, looked up) MEALKRKIEEEGVVLSDQVLKVDSFLNHQIDPLLMQRIGDEFASRFAKDGITKIVTIESSGIAPAVMTGLKLGVPVVFARKHKSLTLTDNLLTASVYSFTKQTESQIAVSGTHLSDQDHVLIIDDFLANGQAAHGLVSIVKQAGASIAGIGIVIEKSFQPGRDELVKLGYRVESLARIQSLEEGKVSFVQEVHS",stoichiometry N,2

# — article PMC7323586 (Journal of molecular biology, 2020)
